Literature values, collected in publication PMC9085562.

Legend:
[1] = target: H3K9me1 peptide (Homo sapiens) (UniProt P68431)
[2] = target: H3K9me3 peptide (Homo sapiens) (UniProt P68431); experiment: fluorescence polarization

Cbx1 (from UniProt P83916)
Kd [1]: 12.5 µM | Kd [2]: 3.2 µM
